Results taken from article doi:10.1101/754457, “Architecture of the Mto1/2 microtubule nucleation complex” (bioRxiv, 2019).
Changes are numbered by the printed parent chain. Names and notes keep the numbering of the source.

B1: Mto2 Near-N-terminal Domain (NND; Mto2 residues 78-153) (domain or fragment, S. pombe, UniProt Q9USP7 78-153, looked up)
chain: PLYSPSWPSLADANVNSMKSNNAIQEHKAAKFVSEKSLEKVSTADNNLVLQELENLRERLNQVELQLSERPSSYLG
notes: Mto2, S. pombe, residues 78-153 (NND); Weak homodimer that dissociates upon dilution; also called wild-type NND; source: E. coli BL21(DE3) pRIL, purified (glutathione-sepharose, TEV cleavage, SEC); not shown: GST, N-terminal, cleaved
B2: NND-R147C (domain or fragment, S. pombe, UniProt Q9USP7 78-153, looked up)
chain: B1 chain with R70C
notes: Mto2, S. pombe, residues 78-153 (NND) with R147C; Disulfide-linked dimer under non-reducing conditions; source: E. coli BL21(DE3) pRIL, purified (glutathione-sepharose, TEV cleavage, SEC); not shown: GST, N-terminal, cleaved
B3: NND-N123C (domain or fragment, S. pombe, UniProt Q9USP7 78-153, looked up)
chain: B1 chain with N46C
notes: Mto2, S. pombe, residues 78-153 (NND) with N123C; Disulfide-linked dimer under non-reducing conditions; source: E. coli BL21(DE3) pRIL, purified (glutathione-sepharose, TEV cleavage, SEC); not shown: GST, N-terminal, cleaved
B4: Mto2 Twin-Cysteine Domain (TCD; Mto2 residues 180-265) (domain or fragment, S. pombe, UniProt Q9USP7 180-265, looked up)
chain: PAPLSTMQTALMRLRTYHPSPIILKPVEQAVNHAITLVNTSPSSVVDALCRSLAELCLGLVQEAIDASILSQQESSNSLDLVRHTP
notes: Mto2, S. pombe, residues 180-265 (TCD); Residues 180-250 (chain A) and 180-248 (chain B) are built in the structure; source: E. coli BL21(DE3) pRIL, purified (glutathione-sepharose, TEV cleavage, SEC); selenomethionine-labelled protein from B834(DE3); not shown: GST, N-terminal, cleaved
B5: 6xHis-TEV-Mto1[bonsai] (Mto1 residues 131-549) (domain or fragment, S. pombe, UniProt O94488 131-549, looked up)
chain: TTDDEQLSPVLTANQGFQSQEQYEEDSYNNYDYTSDPSSPNYISSSLDQLPHLDDEDDLQLTPIKEERNYLHSQDAPTTNALSKKISDILIPASAMKDLKDRKNALAKEFEESQPGSSLTLKEQANVIDNLRKEVFGLKLKCYFLYDQLNKFHDQEVQDIMKQNIDLKTLTMELQRAVAGYEKKISGLESRIKPDQSFNLSTPSPAPSNLITLQSRYSQALSELETTKRAFAALRKEKSKKTNYSVGAYNEDRNVLSNMLDNERREKEALLQELESLRVQLSKKVPMPAKNTDERVIETLQRSNELLRMDISMQNEALLLRKQENDRLVKQVEELTVALNSGKMNAIVEAESSKNELWDSMMVSRMKTQEQSIELTRLYKQLQDIEEDYENKLMRMEQQWREDVDQLQEYVEEITQELQ
notes: Mto1, S. pombe CM1 protein, residues 131-549 of full-length Mto1 (1115 residues); a TEV site lies between the 6xHis tag and Mto1; Dimeric by SEC-MALS; No TEV cleavage is described; also called 6xHis-tagged Mto1[bonsai]; source: Sf9 (MultiBac baculovirus), purified (nickel chelate, Superose 6 SEC); expressed alone or co-expressed with untagged Mto2; not shown: His6, N-terminal, kept
B6: 6xHis-tagged Mto2 (natural protein, S. pombe, UniProt Q9USP7 1-397, looked up)
chain: MSEHNYQSDREVAEDPFLNYEASANQLSSNSRESTPRGSPWRAGMRSASLMTEPLEDSMYSDNNYLDNGVSFTKDENPLYSPSWPSLADANVNSMKSNNAIQEHKAAKFVSEKSLEKVSTADNNLVLQELENLRERLNQVELQLSERPSSYLGYHNNLSPYRSPNSYPSLLPSTHSPHSPAPLSTMQTALMRLRTYHPSPIILKPVEQAVNHAITLVNTSPSSVVDALCRSLAELCLGLVQEAIDASILSQQESSNSLDLVRHTPPLNYTSSVDSSPQRMASDSYGRPSLHLNDPFPSVDLQSNELSHHNVRTTLFSDDSRFHSKIHTHSTPPSQMYSAASHFRYRSDPSTRHVSNSTNKSSLHPSPTSLRVAHPIIPQRASPASQSFPSLQDTPSP
notes: Forms a range of multimers; Construct described in Leong et al., 2019; also called wild-type Mto2; 6xHis-Mto2; source: Sf9 (MultiBac baculovirus), purified (nickel chelate, Superose 6 SEC); also Sf9 co-infected with GST-Mto1[bonsai] virus, in lysate
B7: Mto1/2[bonsai] complex (complex, S. pombe)
chain 1: B5 chain
chain 2: B6 chain
notes: Mto1, S. pombe, residues 131-549 of full-length Mto1 (Mto1[bonsai]); Mto2, S. pombe, untagged in the co-expression; Near-equal stoichiometry of the two chains; a range of multimer sizes, so no copy numbers; also called 6xHis-tagged Mto1/2[bonsai]; recombinant Mto1/2[bonsai]; source: Sf9 (MultiBac baculovirus), co-expressed, purified (nickel chelate, Superose 6 SEC); not shown: His6, N-terminal, …
B8: Mto2, untagged, co-expressed with 6xHis-Mto1[bonsai] (natural protein, S. pombe, UniProt Q9USP7 1-397, looked up)
chain: B6 chain
notes: Mto2, S. pombe; for coexpression the tag was present only on Mto1[bonsai]; Construct described in Leong et al., 2019; also called Mto2 (of the Mto1/2[bonsai] complex); source: Sf9 (MultiBac baculovirus), co-expressed and co-purified with 6xHis-Mto1[bonsai]

Columns and labels:
[1] = target: the molecule itself; experiment: SEC-MALS; Superdex 75 10/300 for protein fragments; NND injected at ∼5 mg/mL (600 µM) and a dilution series, TCD at ∼10 mg/mL (1000 µM) and a dilution series
[2] = target: the molecule itself; experiment: ITC; dilution series, 25°C, iTC200; 100 µM NND injected (20 x 2 µL) into 50 mM Tris-HCl pH 8.0, 150 mM NaCl, 2 mM EDTA; dimer dissociation model; dimer to monomers
[3] = target: the molecule itself; experiment: cross-linking; intermolecular disulfide between engineered cysteines; SDS-PAGE with and without β-mercaptoethanol
[4] = target: the molecule itself; experiment: SEC-MALS; Superose 6 10/300 for full-length proteins and complexes; injected at ∼4.5 mg/mL (Mto1/2[bonsai]), ∼1.3 mg/mL (Mto1[bonsai]), ∼1.6 mg/mL (Mto2), 1.4 mg/mL (Mto2-134A136A), 1.3 mg/mL (Mto2-134AAA)
[5] = target: the molecule itself; experiment: SEC; SEC-dilution analysis, Superose 6 10/300, 4°C, 100 µL loaded; undiluted ∼9 mg/mL (co-purified Mto1/2[bonsai]), ∼1.5 mg/mL (Mto1[bonsai]), ∼2.5 mg/mL (Mto2), and 10X dilution; fractions by SDS-PAGE and western blot
[6] = target: the molecule itself; experiment: cross-linking; EDC/Sulfo-NHS zero-length cross-linking with mass spectrometry (CLMS) of co-purified Mto1/2[bonsai] complex; phosphate pH 7.5, 300 mM NaCl, 5% glycerol, 2 h at 18°C
[7] = target: B5; experiment: SEC; SEC-dilution analysis, Superose 6 10/300, 4°C, 100 µL loaded; undiluted ∼9 mg/mL (co-purified Mto1/2[bonsai]), ∼1.5 mg/mL (Mto1[bonsai]), ∼2.5 mg/mL (Mto2), and 10X dilution; fractions by SDS-PAGE and western blot; settings: both partners purified

## B1
[1]
  stoichiometry N: 2
[2]
  Kd: 15 µM

## B2
[3]
  binding result: binds

## B3
[3]
  binding result: binds

## B4
[1]
  stoichiometry N: 2

## B5
[4]
  stoichiometry N: 2

## B6
[5]
  binding result: binds

## B7
[4]
  binding result: binds

## B8
[6]
  binding result: binds
[7]
  stoichiometry N: ~1
